First the molecules themselves.
B1: recombinant human TRAP1 wild type, lacking the mitochondrial import sequence (natural protein, UniProt Q12931 60-704, looked up)
chain: STQTAEDKEEPLHSIISSTESVQGSTSKHEFQAETKKLLDIVARSLYSEKEVFIRELISNASDALEKLRHKLVSDGQALPEMEIHLQTNAEKGTITIQDTGIGMTQEELVSNLGTIARSGSKAFLDALQNQAEASSKIIGQFGVGFYSAFMVADRVEVYSRSAAPGSLGYQWLSDGSGVFEIAEASGVRTGTKIIIHLKSDCKEFSSEARVRDVVTKYSNFVSFPLYLNGRRMNTLQAIWMMDPKDVREWQHEEFYRYVAQAHDKPRYTLHYKTDAPLNIRSIFYVPDMKPSMFDVSRELGSSVALYSRKVLIQTKATDILPKWLRFIRGVVDSEDIPLNLSRELLQESALIRKLRDVLQQRLIKFFIDQSKKDAEKYAKFFEDYGLFMREGIVTATEQEVKEDIAKLLRYESSALPSGQLTSLSEYASRMRAGTRNIYYLCAPNRHLAEHSPYYEAMKKKDTEVLFCFEQFDELTLLHLREFDKKKLISVETDIVVDHYKEEKFEDRSPAAECLSEKETEELMAWMRNVLGSRVTNVKVTLRLDTHPAMVTVLEMGAARHFLRMQQLAKTQEERAQLLQPTLEINPRHALIKKLNQLRASEPGLAQLLVDQIYENAMIAAGLVDDPRAMVGRLNELLVKALERH
notes: Cloned in pET-26b(+); Dimer by gel filtration with DTT; an additional tetramer peak after H2O2; also called WT TRAP1; TRAP1 WT; source: E. coli BL21(DE3), purified (Ni-NTA)
B2: recombinant human TRAP1 C501S (natural protein, UniProt Q12931 60-704, looked up)
chain: STQTAEDKEEPLHSIISSTESVQGSTSKHEFQAETKKLLDIVARSLYSEKEVFIRELISNASDALEKLRHKLVSDGQALPEMEIHLQTNAEKGTITIQDTGIGMTQEELVSNLGTIARSGSKAFLDALQNQAEASSKIIGQFGVGFYSAFMVADRVEVYSRSAAPGSLGYQWLSDGSGVFEIAEASGVRTGTKIIIHLKSDCKEFSSEARVRDVVTKYSNFVSFPLYLNGRRMNTLQAIWMMDPKDVREWQHEEFYRYVAQAHDKPRYTLHYKTDAPLNIRSIFYVPDMKPSMFDVSRELGSSVALYSRKVLIQTKATDILPKWLRFIRGVVDSEDIPLNLSRELLQESALIRKLRDVLQQRLIKFFIDQSKKDAEKYAKFFEDYGLFMREGIVTATEQEVKEDIAKLLRYESSALPSGQLTSLSEYASRMRAGTRNIYYLSAPNRHLAEHSPYYEAMKKKDTEVLFCFEQFDELTLLHLREFDKKKLISVETDIVVDHYKEEKFEDRSPAAECLSEKETEELMAWMRNVLGSRVTNVKVTLRLDTHPAMVTVLEMGAARHFLRMQQLAKTQEERAQLLQPTLEINPRHALIKKLNQLRASEPGLAQLLVDQIYENAMIAAGLVDDPRAMVGRLNELLVKALERH
notes: Cloned in pET-26b(+); same construct as m1 with the mutation; source: E. coli BL21(DE3), purified (Ni-NTA)
B3: recombinant human TRAP1 C501S/C527A double mutant (natural protein, UniProt Q12931 60-704, looked up)
chain: STQTAEDKEEPLHSIISSTESVQGSTSKHEFQAETKKLLDIVARSLYSEKEVFIRELISNASDALEKLRHKLVSDGQALPEMEIHLQTNAEKGTITIQDTGIGMTQEELVSNLGTIARSGSKAFLDALQNQAEASSKIIGQFGVGFYSAFMVADRVEVYSRSAAPGSLGYQWLSDGSGVFEIAEASGVRTGTKIIIHLKSDCKEFSSEARVRDVVTKYSNFVSFPLYLNGRRMNTLQAIWMMDPKDVREWQHEEFYRYVAQAHDKPRYTLHYKTDAPLNIRSIFYVPDMKPSMFDVSRELGSSVALYSRKVLIQTKATDILPKWLRFIRGVVDSEDIPLNLSRELLQESALIRKLRDVLQQRLIKFFIDQSKKDAEKYAKFFEDYGLFMREGIVTATEQEVKEDIAKLLRYESSALPSGQLTSLSEYASRMRAGTRNIYYLSAPNRHLAEHSPYYEAMKKKDTEVLFAFEQFDELTLLHLREFDKKKLISVETDIVVDHYKEEKFEDRSPAAECLSEKETEELMAWMRNVLGSRVTNVKVTLRLDTHPAMVTVLEMGAARHFLRMQQLAKTQEERAQLLQPTLEINPRHALIKKLNQLRASEPGLAQLLVDQIYENAMIAAGLVDDPRAMVGRLNELLVKALERH
notes: Cloned in pET-26b(+); same construct as m1 with the mutations; source: E. coli BL21(DE3), purified (Ni-NTA)
B4: recombinant human TRAP1 C573R (natural protein, UniProt Q12931 60-704, looked up)
chain: STQTAEDKEEPLHSIISSTESVQGSTSKHEFQAETKKLLDIVARSLYSEKEVFIRELISNASDALEKLRHKLVSDGQALPEMEIHLQTNAEKGTITIQDTGIGMTQEELVSNLGTIARSGSKAFLDALQNQAEASSKIIGQFGVGFYSAFMVADRVEVYSRSAAPGSLGYQWLSDGSGVFEIAEASGVRTGTKIIIHLKSDCKEFSSEARVRDVVTKYSNFVSFPLYLNGRRMNTLQAIWMMDPKDVREWQHEEFYRYVAQAHDKPRYTLHYKTDAPLNIRSIFYVPDMKPSMFDVSRELGSSVALYSRKVLIQTKATDILPKWLRFIRGVVDSEDIPLNLSRELLQESALIRKLRDVLQQRLIKFFIDQSKKDAEKYAKFFEDYGLFMREGIVTATEQEVKEDIAKLLRYESSALPSGQLTSLSEYASRMRAGTRNIYYLCAPNRHLAEHSPYYEAMKKKDTEVLFCFEQFDELTLLHLREFDKKKLISVETDIVVDHYKEEKFEDRSPAAERLSEKETEELMAWMRNVLGSRVTNVKVTLRLDTHPAMVTVLEMGAARHFLRMQQLAKTQEERAQLLQPTLEINPRHALIKKLNQLRASEPGLAQLLVDQIYENAMIAAGLVDDPRAMVGRLNELLVKALERH
notes: as for B2
B5: recombinant human TRAP1 C527A (natural protein, UniProt Q12931 60-704, looked up)
chain: STQTAEDKEEPLHSIISSTESVQGSTSKHEFQAETKKLLDIVARSLYSEKEVFIRELISNASDALEKLRHKLVSDGQALPEMEIHLQTNAEKGTITIQDTGIGMTQEELVSNLGTIARSGSKAFLDALQNQAEASSKIIGQFGVGFYSAFMVADRVEVYSRSAAPGSLGYQWLSDGSGVFEIAEASGVRTGTKIIIHLKSDCKEFSSEARVRDVVTKYSNFVSFPLYLNGRRMNTLQAIWMMDPKDVREWQHEEFYRYVAQAHDKPRYTLHYKTDAPLNIRSIFYVPDMKPSMFDVSRELGSSVALYSRKVLIQTKATDILPKWLRFIRGVVDSEDIPLNLSRELLQESALIRKLRDVLQQRLIKFFIDQSKKDAEKYAKFFEDYGLFMREGIVTATEQEVKEDIAKLLRYESSALPSGQLTSLSEYASRMRAGTRNIYYLCAPNRHLAEHSPYYEAMKKKDTEVLFAFEQFDELTLLHLREFDKKKLISVETDIVVDHYKEEKFEDRSPAAECLSEKETEELMAWMRNVLGSRVTNVKVTLRLDTHPAMVTVLEMGAARHFLRMQQLAKTQEERAQLLQPTLEINPRHALIKKLNQLRASEPGLAQLLVDQIYENAMIAAGLVDDPRAMVGRLNELLVKALERH
notes: as for B2
B6: recombinant human TRAP1 C261S (natural protein, UniProt Q12931 60-704, looked up)
chain: STQTAEDKEEPLHSIISSTESVQGSTSKHEFQAETKKLLDIVARSLYSEKEVFIRELISNASDALEKLRHKLVSDGQALPEMEIHLQTNAEKGTITIQDTGIGMTQEELVSNLGTIARSGSKAFLDALQNQAEASSKIIGQFGVGFYSAFMVADRVEVYSRSAAPGSLGYQWLSDGSGVFEIAEASGVRTGTKIIIHLKSDSKEFSSEARVRDVVTKYSNFVSFPLYLNGRRMNTLQAIWMMDPKDVREWQHEEFYRYVAQAHDKPRYTLHYKTDAPLNIRSIFYVPDMKPSMFDVSRELGSSVALYSRKVLIQTKATDILPKWLRFIRGVVDSEDIPLNLSRELLQESALIRKLRDVLQQRLIKFFIDQSKKDAEKYAKFFEDYGLFMREGIVTATEQEVKEDIAKLLRYESSALPSGQLTSLSEYASRMRAGTRNIYYLCAPNRHLAEHSPYYEAMKKKDTEVLFCFEQFDELTLLHLREFDKKKLISVETDIVVDHYKEEKFEDRSPAAECLSEKETEELMAWMRNVLGSRVTNVKVTLRLDTHPAMVTVLEMGAARHFLRMQQLAKTQEERAQLLQPTLEINPRHALIKKLNQLRASEPGLAQLLVDQIYENAMIAAGLVDDPRAMVGRLNELLVKALERH
notes: as for B2

One data set deals with the molecule itself. The experiment in a line: SEC; Superdex 200 HR 10/30, 20 mM TRIS, 150 mM NaCl, pH 7; recombinant TRAP1 incubated with 100 μM H2O2; additional peak beside the dimer; dimers to tetramer.
Regarding B1, the stoichiometry N (usually a count of units in the complex or per binding partner) is 4.

Another data set concerns the molecule itself. Kind of data set: non-reducing SDS-PAGE; purified recombinant TRAP1, DTT removed, 150 mM NaCl, 50 mM TRIS, pH 7.5, 37 °C, 100 μM H2O2 for 30 min (1 nM to 100 μM in Fig. 1B); disulfide-linked band above 170 kDa; Coomassie or stain-free.
Take B2: the binding result is “binds”.
Still for that read-out and setting: the result for B3 reads “binds”.
On the same count and under the same terms, the result for B4 reads “binds”; that for B5, “binds”.
Still for that read-out and setting: the result for B6 reads “binds”.

The record behind these values is paper PMC12152899, “Disulfide-mediated tetramerization of TRAP1 fosters its antioxidant and pro-neoplastic activities” (Redox Biology, 2025).
